What was measured:
[1] = target: β2AR truncated after amino acid 365 (β2AR-365), native (human) (UniProt P07550); test: cell-based or functional assay
[2] = target: T1, β2AR truncated after amino acid 365 (β2AR-365), native (human, UniProt P07550 1-365); test: listed as β2AR-specific; phage selection and ELISA on reconstituted β2AR-365
T1 construct: Expressed in Sf9 insect cells; Used detergent-solubilized, in phospholipid vesicles, in Sf9 membranes or in HDL particles; In the bimane assays it carried monobromobimane on Cys265; also called WT β2AR
Experimental: In a first screen we compared the binding of the nanobodies on the native and heat denatured β₂AR antigen in an ELISA. […] Next, this plate was incubated at 80° C. for two hours.
A single llama received six weekly administrations of the reconstituted truncated β₂AR. Lymphocytes were isolated from the blood of the immunized llama and total RNA was prepared from these cells. […] Antigen-bound phages were recovered from antigen-coated wells either with thriethylamine pH11 and neutralized with Tris-HCl pH7 or by the addition of freshly grown TG1 E. coli cells. After two rounds of bio-panning, 96 individual colonies were randomly picked and the nanobodies produced as a soluble HIS-tagged protein in the periplasm of the TG1 cells.

[3] = target: β2AR-T4L fusion protein (third intracellular loop replaced by T4 lysozyme, truncated at position 365) (human) (UniProt P07550); test: cell-based or functional assay
[4] = target: T1, β2AR truncated after amino acid 365 …; test: cell-based or functional assay

Molecule | binding result [2] | also measured
Gs heterotrimer |  | Ki of (-)-isoproterenol, high affinity state, β2AR/HDL reconstituted with Gs [1]: 1.07 nM; Ki of (-)-isoproterenol, low affinity state, β2AR/HDL reconstituted with Gs [1]: 95.3 nM; Ki of (-)-isoproterenol, low affinity state, β2AR/HDL reconstituted with Gs in the presence of 10 µM GTPγS [1]: 95.2 nM; fold increase of the affinity of isoproterenol for β2AR/HDL [1]: 100 fold
Nanobody CA2784 (VHH, also called NB84 (short notation shared with CA3484)) VHH: QVQLQESGGGLVQAGGSLRLSCAASGSIFSINAMGWYRQAPGKQRELVAAITSGGSTTYADSVKGRFTVSRDNAKNTVYLQMIRLKPEDTAVYYCHVRDIYSDFLGQYEYDYWGQGTQVTVSS | binds | 
Nanobody-80 (Nb80), reference number CA2780 (VHH, not shown: small tags and cut ends) VHH: QVQLQESGGGLVQAGGSLRLSCAASGSIFSINTMGWYRQAPGKQRELVAAIHSGGSTNYANSVKGRFTISRDNAANTVYLQMNSLKPEDTAVYYCNVKDYGAVLYEYDYWGQGTQVTVSS |  | Ki of (-)-isoproterenol, high affinity state, β2AR-T4L/HDL with 1 µM Nb80 (33.5 without) [3]: 0.56 nM; fold increase of the affinity of isoproterenol for β2AR-T4L/HDL [3]: 60 fold
Nanobody CA3431 (VHH, also called NB31) VHH: QVQLQESGGGLVQPGGSLRLSCAASGSIFSINTMGWYRQAPGKQRELVAAIHSGGSTNYANSVKGRFTISRDNAANTVYLQMNSLKPEDTAVYYCNVKDYGAVLYEYDYWGQGTQVTVSS | binds | 
Nanobody 65, reference number CA2765 (VHH) VHH: QVQLQESGGGLVQAGGSLRLSCAASGSIFSINTMGWYRQAPGKQRELVAAIHSGGSTNYADSVRGRFTISRDNAKNTVYLQMNSLKPEDTAVYYCNVKDYGAVLYEYDYWGQGTQVTVSS |  | Ki of (-)-isoproterenol for β2AR, [3H]-DHA competition on Sf9 membranes with 1 µM nanobody (295 without nanobody) [4]: 13.8 nM
Nanobody CA2764 (VHH, also called NB64) VHH: QVQLQESGGGLVQAGGSLRLSCAASGSIFSINTMGWYRQAPGKQRELVAAIHSGGSTNYADSVKGRFTISRDNAKNTVYLQMNSLKPEDTAVYYCNVKDYGAVLYEYDYWGQGTQVTVSS | binds | 
Nanobody CA3477 (VHH, also called NB77) VHH: QVQLQESGGGLVQAGGSLRLSCAASGSIFSLNDMGWYRQAPGKQRELVAAITSGGSTNYADSVKGRFTISRDNAKNTVYLQMNSLKPEDTAVYYCNAKVAGTFSIYDYWGQGTQVTVSS | binds | 
Nanobody CA3433 (VHH, also called NB33) VHH: QVQLQESGGGLVQAGGSLRLSCAASGSIFSLNDMGWYRQAPGKLRELVAAVTSGGSTNYADSVKGRFTISRDNAKNTVYLQMNSLKPEDTAVYYCNAKVAGTFSIYDYWGQGTQVTVSS | binds | 
Nanobody CA3484 (VHH, also called NB84 (short notation shared with CA2784)) VHH: QVQLQESGGGLVQAGGSLRLSCAASGSIFSLNDMGWYRQAPGKLRELVAAITSGGSTKYADPVKGRFTISRDNAKNTVYLQMNSLKAEDTAVYYCNAKVAGTFSIYDYWGQGTQVTVSS | binds | 
Nanobody CA3475 (VHH, also called NB75) VHH: QVQLQESGGGLVQAGGPLRLSCAASGSIFSLNDMGWYRQAPGKQRELVAAITSGGSTNYADSVKGRFTISRDNAKNTVYLQMNSLKPEDTAVYYCNAVVAGTFSTYDYWGQGTQVTVSS | binds | 
Nanobody 67, reference number CA2767 (VHH) VHH: QVQLQESGGGLVQAGGSLRLSCAASGTISSFIAMGWYRQSPGKQRELVAGITSGGETNYEDSVKGRFTISRDNAKNTLYLQMNTLKPEDTAVYYCNAQVFADIFNLINYWGQGTQVTVSS |  | Ki of (-)-isoproterenol for β2AR, [3H]-DHA competition on Sf9 membranes with 1 µM nanobody (295 without nanobody) [4]: 19.4 nM
Nanobody 71, reference number CA2771 (VHH) VHH: QVQLQESGGGLVQPGGSLRLSCAASGFAFSSYELRWYRQAPGKQHELVAGITTGGNTYYADSVKGRFTISRDNAKNTVYLQMSNLRPEDTAVYACNANWDLLSDYWGQGTQVTVSS |  | Ki of (-)-isoproterenol for β2AR, [3H]-DHA competition on Sf9 membranes with 1 µM nanobody (295 without nanobody) [4]: 10.6 nM
Nanobody CA3422 (VHH, also called NB22) VHH: QVQLQESGGGLVQAGGSLRLSCAASGSIFSINAMGWYRQAPGKQRELVAASTSGDITNYADSVKGRFTISRDNAKNTVYLQMNSLEPEDTGVYYCNARGIYSDYAFADFNSWGQGTQVTVSS | binds | 

More lines, main results first:

binding result [2] | Molecule | also measured
binds | Nanobody CA3413 (VHH, also called NB13) VHH: QVQLQESGGGLVQAGGSLRLSCAASGSIFSINTMGWYRQAPGKRRELVAAIHSGGSTNYANSVKGRFTISRDNAANTVYLQMNSLKPEDTAVYYCNVKDYGAVLYEYDYWGQGTQVTVSS | 
binds | Nanobody CA3420 (VHH, also called NB20) VHH: QVQLQESGGGLVQAGGSLRLSCAASGSIFSLNDMGWYRQAPGKQRDLVAAITSGGSTKYADSVKGRFTVSRDNAKNTVYLQMNSLKPEDTAVYYCNAKVAGTFSIYDYWGQGTQVTVSS | 
binds | Nanobody CA3472 (VHH, also called NB72 (short notation shared with CA2772)) VHH: QVQLQESGGGLVQPGGSLRLSCAASGSIFSLNDMGWYRQAPGKQRELVAAISSGGRLNYADSVKGRFTISRDNAKNTVYLQMNSLKPEDTAVYYCNAVVAGTFSTYDYWGQGTQVTVSS | 
binds | Nanobody CA3424 (VHH, also called NB24) VHH: QVQLQESGGGLVQAGGSLRLSCAASGSVFSLPTAGWYRQAPGKQRELVALITGSGSTHYADSVKGRFAISREYSKKTMDLQMNSLHREDTAVYFCYYRSTFTEYWGQGTQVTVSS | 
